Assay results taken from US20200325212A1 (CITY OF HOPE, published 2020).
Blank lines part the entries; values can stand above or below the binder they belong to.

Tests used:
[1] = target: T1, CTLA4-Fc MMP9 (MMP9-cleavable CTLA4-Fc mask; CTLA4-Fc_WT) (human); test: SPR, CTLA-4-MMP9-Fc coupled to the sensor chip and titrated with m-Lcn2-Fc; no dissociation observed
T1 construct: It was expressed in insect cells; also called CTLA-4-MMP9-Fc; CTLA4-MMP9-Fc
Text: To verify that the m-Lcn2-Fc and CTLA-4-Fc form a 1:1 complex, we used analytical size exclusion chromatography (SEC) (FIG. 3 panel A). A definitive shift to earlier elution volumes was observed, consistent with a molecular mass of 200 kD, as expected. To verify an increase in the apparent affinity due to the energy additivity of bivalent-bivalent interaction, the mask, CTLA-4-MMP9-Fc, was coupled to a CMS sensor chip and titrated with the bivalent m-Lcn2-Fc. A substantial increase in affinity was observed. In fact, no dissociation was observed and thus no calculation could be completed for an apparent dissociation constant (FIG. 3 panel B). […] In an attempt to establish the off-rate, a competition assay was carried out. Specifically, the 1:1 m-Lcn2-Fc|CTLA-4-MMP9-Fc complex was isolated and incubated with 10 fold excess of Alexafluor-labeled CTLA-4-MMP9-Fc. The exchange by size exclusion chromatography was followed by monitoring at […]. After two weeks, less than 5% exchange was observed.
Surface Plasmon Resonance (SPR). SPR experiments were performed on a GE Biacore T100 instrument at 25° C. Ligands were amine coupled to CMS chips at 300 Rmax. Blank lanes were used as baseline control. Analyte titrations were prepared as serial dilutions in HBS-EP⁺ running buffer (10 mM Hepes pH 7.4, 150 mM NaCl, 3 mM EDTA, 0.05% v/v P20). […]

[2] = target: murine CTLA4 on murine T-cells (C57BL/6 splenocytes) (mouse, UniProt P09793 36-223); test: cell-based or functional assay
[3] = target: T2, CTLA-4-Fc (purchased from R&D systems) (human, UniProt P16410 37-162); test: SPR presumed; method not given; monovalent m-Lcn2 to CTLA-4
T2 construct: Bought reagent; also called human CTLA4; not shown: Fc part and linker of the commercial product are not described
T2 sequence (looked up): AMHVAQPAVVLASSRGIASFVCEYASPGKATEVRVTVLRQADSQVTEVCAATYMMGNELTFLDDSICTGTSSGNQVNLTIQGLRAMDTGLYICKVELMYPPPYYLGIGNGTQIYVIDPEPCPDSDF

[4] = target: T3, CTLA4-Fc variant E31S R33E T51H (human); test: SPR (Biacore T100), mLCN2 on CTLA4-Fc variant
T3 construct: Whole fusion (CTLA4 extracellular domain, MMP9 linker, IgG1 Fc) with E31S, R33E and T51H; also called E31S, R33E, T51H CTLA-4
T3 sequence (chain, as listed by the source E31S R33E T51H E31S R33E T51H limits assumed): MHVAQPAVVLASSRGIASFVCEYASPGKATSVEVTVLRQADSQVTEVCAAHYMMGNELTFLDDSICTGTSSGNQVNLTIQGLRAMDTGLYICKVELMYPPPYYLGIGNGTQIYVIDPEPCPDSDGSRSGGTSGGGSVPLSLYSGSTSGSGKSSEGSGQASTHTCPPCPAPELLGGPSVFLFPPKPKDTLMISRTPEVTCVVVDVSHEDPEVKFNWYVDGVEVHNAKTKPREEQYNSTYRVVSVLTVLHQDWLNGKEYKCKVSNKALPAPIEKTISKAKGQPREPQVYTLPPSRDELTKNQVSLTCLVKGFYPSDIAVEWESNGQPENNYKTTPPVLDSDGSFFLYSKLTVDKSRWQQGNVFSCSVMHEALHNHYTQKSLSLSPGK
Protocol: (§1) Surface Plasmon Resonance (SPR). SPR experiments were performed on a GE Biacore T100 instrument at 25° C. Ligands were amine coupled to CMS chips at 300 Rmax. Blank lanes were used as baseline control. Analyte titrations were prepared as serial dilutions in HBS-EP⁺ running buffer (10 mM Hepes pH 7.4, 150 mM NaCl, 3 mM EDTA, 0.05% v/v P20). Increasing concentrations of analytes were flowed over blank and ligand lanes at 50 μL/min. Regeneration buffer (1 M NaCl, 10 mM glycine pH 2.6) was flowed at 90 μL/min for 10 s. Data analyses were performed using Biacore T100 Evaluation Software, version 1.1.1 (GE Healthcare). Response reported as the difference between blank and peptide lanes.
(§2) TABLE 3 Kinetics of CTLA4-Fc mask variants, as measured by SPR. Binding kinetics of mLCN2 for each CTLA4-Fc variant was measured by SPR. Half-life time was calculated from equation: t_{1/2} = ln (2)/kd.

[5] = target: T1, CTLA4-Fc MMP9 (MMP9-cleavable CTLA4-Fc …); test: SPR (Biacore T100), mLCN2 on CTLA4-Fc variant
Protocol: as §1, §2

[6] = target: CTLA4-Fc variant Y52F (human); test: SPR (Biacore T100), mLCN2 on CTLA4-Fc variant
Sequence of CTLA4-Fc variant Y52F (human) (chain, as listed by the source Y52F Y52F limits assumed): as the sequence (chain, as listed by the source E31S R33E T51H E31S R33E T51H limits assumed) above, with S31E, E33R, H51T, Y52F counted along it
Protocol: as §1, §2

[7] = target: T4, CTLA4-Fc variant E31A R33A (human); test: SPR (Biacore T100), mLCN2 on CTLA4-Fc variant
T4 construct: Whole fusion (CTLA4 extracellular domain, MMP9 linker, IgG1 Fc) with E31A and R33A; also called E31A and R33A CTLA-4
T4 sequence (chain, as listed by the source E31A R33A E31A R33A limits assumed): as the sequence (chain, as listed by the source E31S R33E T51H E31S R33E T51H limits assumed) above, with S31A, E33A, H51T counted along it
Protocol: as §1, §2

[8] = target: T5, CTLA4-Fc variant T51H (human); test: SPR (Biacore T100), mLCN2 on CTLA4-Fc variant
T5 construct: Whole fusion (CTLA4 extracellular domain, MMP9 linker, IgG1 Fc) with T51H; also called T51H CTLA-4
T5 sequence (chain, as listed by the source T51H T51H limits assumed): as the sequence (chain, as listed by the source E31S R33E T51H E31S R33E T51H limits assumed) above, with S31E, E33R counted along it
Protocol: as §1, §2

[9] = target: T3, CTLA4-Fc variant E31S R33E T51H; test: calculated from SPR kd, t1/2 = ln(2)/kd
Protocol: as §1, §2

[10] = target: T1, CTLA4-Fc MMP9 (MMP9-cleavable CTLA4-Fc …); test: calculated from SPR kd, t1/2 = ln(2)/kd
Protocol: as §1, §2

[11] = target: CTLA4-Fc variant Y52F (human); test: calculated from SPR kd, t1/2 = ln(2)/kd
Protocol: as §1, §2

[12] = target: T4, CTLA4-Fc variant E31A R33A; test: calculated from SPR kd, t1/2 = ln(2)/kd
Protocol: as §1, §2

[13] = target: T5, CTLA4-Fc variant T51H; test: calculated from SPR kd, t1/2 = ln(2)/kd
Protocol: as §1, §2

[14] = target: T2, CTLA-4-Fc (purchased from R&D systems); test: calculated from the koff of the monovalent m-Lcn2 : CTLA-4 interaction

T1 sequence (chain, as listed by the source limits assumed): as the sequence (chain, as listed by the source E31S R33E T51H E31S R33E T51H limits assumed) above, with S31E, E33R, H51T counted along it

Kd [1]: ≤ 0.2 nM
induction of IFN-γ production (Elispot) [2]: 10 fold
B1: mLCN2-Fc (bivalent m-Lcn2 fused to human IgG1 Fc) (Fc fusion)
chain: QDSTSDLIPAPPLSKVPLQQNFQDNQFHGKWYVVGLAGNRILRDDQHPMNMYATIYELKEDKSYNVTSVISSHKKCEYTIATFVPGSQPGEFTLGNIKSYGDKTSYLVRVVSTDYNQYAVVFFKLAEDNAEFFAITIYGRTKELASELKENFIRFSKSLGLPENHIVFPVPIDQCIDG
notes: m-Lcn2 cDNA was subcloned N-terminal to a linker-Fc domain and expressed in insect cells; also called bivalent m-Lcn2-Fc; unmasked m-Lcn2-Fc; not shown: linker between m-Lcn2 and Fc; human IgG1 Fc fragment

koff [3]: 0.00051 s⁻¹
Kd [4]: 5600 nM
koff [4]: 0.025 s⁻¹
kon [4]: 4430 M⁻¹ s⁻¹
Kd [5]: 5.52 nM
koff [5]: 0.000201 s⁻¹
kon [5]: 36400 M⁻¹ s⁻¹
Kd [6]: 6.14 nM
koff [6]: 0.000215 s⁻¹
kon [6]: 35100 M⁻¹ s⁻¹
Kd [7]: 100 nM
koff [7]: 0.0011 s⁻¹
kon [7]: 11000 M⁻¹ s⁻¹
Kd [8]: 9.07 nM
koff [8]: 0.00022 s⁻¹
kon [8]: 24200 M⁻¹ s⁻¹
Calculated t1/2 [9]: 0.467 min
Calculated t1/2 [10]: 57.8 min
Calculated t1/2 [11]: 53.7 min
Calculated t1/2 [12]: 11.6 min
Calculated t1/2 [13]: 52.5 min
t1/2 (dissociation half-life, 0.693/KOFF) [14]: 22 min
B2: modified lipocalin2 (mLcn2), monovalent (designed binder)
chain: B1 chain
notes: Re-engineered human lipocalin 2 used as a CTLA-4 antagonist; also called monovalent mLCN2; monomeric mLCN2
